Positions count from the first letter of the chain named. Names and notes keep the numbering of the source.
B1: MlaE, His-tagged (His-E), permease of the MlaFEDB ABC transporter (natural protein)
chain: MLLNALASLGHKGIKTLRTFGRAGLMLFNALVGKPEFRKHAPLLVRQLYNVGVLSMLIIVVSGVFIGMVLGLQGYLVLTTYSAETSLGMLVALSLLRELGPVVAALLFAGRAGSALTAEIGLMRATEQLSSMEMMAVDPLRRVISPRFWAGVISLPLLTVIFVAVGIWGGSLVGVSWKGIDSGFFWSAMQNAVDWRMDLVNCLIKSVVFAITVTWISLFNGYDAIPTSAGISRATTRTVVHSSLAVLGLDFVLTALMFGN
B2: MlaD Δ141-183 (natural protein)
chain: MQTKKNEIWVGIFLLAALLAALFVCLKAANVTSIRTEPTYTLYATFDNIGGLKARSPVSIGGVVVGRVADITLDPKTYLPRVTLEIEQRYNHIPDTSSLSIRTSGLLGEQYLALNVGFEDPELGTAILKDGDTIQDTKSA
B3: MlaD, substrate-binding MCE-domain protein of the MlaFEDB complex (natural protein)
chain: MQTKKNEIWVGIFLLAALLAALFVCLKAANVTSIRTEPTYTLYATFDNIGGLKARSPVSIGGVVVGRVADITLDPKTYLPRVTLEIEQRYNHIPDTSSLSIRTSGLLGEQYLALNVGFEDPELGTAILKDGDTIQDTKSAMVLEDLIGQFLYGSKGDDNKNSGDAPAAAPGNNETTEPVGTTK
B4: MlaD L106N/L107N (natural protein)
chain: B3 chain with L106N, L107N
B5: MlaB, cytoplasmic STAS-domain protein of the MlaFEDB complex (natural protein)
chain: MSESLSWMQTGDTLALSGELDQDVLLPLWEMREEAVKGITCIDLSRVSRVDTGGLALLLHLIDLAKKQGNNVTLQGVNDKVYTLAKLYNLPADVLPR
B6: MlaB T52A (natural protein)
chain: B5 chain with T52A

Experiments:
[1] = molecular target: T1, MlaF, nucleotide binding domain of the MlaFEDB ABC transporter (UniProt P63386 1-269); assay: SEC
T1 sequence: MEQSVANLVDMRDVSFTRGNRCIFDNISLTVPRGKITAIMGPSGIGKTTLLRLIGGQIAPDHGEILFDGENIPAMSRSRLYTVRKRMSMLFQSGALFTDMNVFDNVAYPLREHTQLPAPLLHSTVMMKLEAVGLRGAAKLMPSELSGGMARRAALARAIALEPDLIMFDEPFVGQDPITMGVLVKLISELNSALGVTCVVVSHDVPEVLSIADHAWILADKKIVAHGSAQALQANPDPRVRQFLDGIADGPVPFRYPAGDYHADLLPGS

[2] = molecular target: T2, MlaF K47A (Walker A variant) (UniProt P63386 1-269, K47A); assay: SEC
T2 sequence: T1 sequence with K47A

[3] = molecular target: B1; assay: SEC
[4] = molecular target: the molecule itself; assay: SDS-PAGE of SDS-resistant oligomers

Binder | binding result [1] | binding result [2] | binding result [3] | stoichiometry N [4]
B1 | binds | binds |  | 
B2 |  |  | binds | 6
B3 |  |  | binds | 
B4 |  |  | binds | 6
B5 |  |  | binds | 
B6 |  |  | binds | 

— paper doi:10.1101/2021.05.25.445566 (bioRxiv, 2021)
